Test results reported in publication PMC2762042.

Target: hnRNP G-T RRM (Homo sapiens) (UniProt O75526)
Experiment: EMSA
Settings: EMSA with radio-labelled T7 transcripts and 30 or 100 ng RRM protein; buffer, salt, pH and temperature not given in material

hnRNP G-T RRM (Homo sapiens), sequence (O75526 8-86): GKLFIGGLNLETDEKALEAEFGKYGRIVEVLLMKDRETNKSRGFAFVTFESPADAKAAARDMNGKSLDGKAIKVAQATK

In the case of “AGGUAUUGGGCUUUGGCUGAGGGCUUUUUGUUGUUGUUGUUGUUGUU [ABwt]”, the Kd is reported as 1.7 nM.
